These results are taken from paper PMC10321576, “Cyclic peptides target the aromatic cage of a PHD-finger reader domain to modulate epigenetic protein function†” (Chemical Science, 2023).

Assay [1] has as its target T1, KDM7B PHD-finger (UniProt Q9UPP1-2 1-447). The experiment in a line: BLI; association and dissociation of the cyclic peptide (2-fold serial dilution) on the protein; curve fittings with a 1:1 binding model. To be noted: both partners purified.
The target of assay [2] is T1, KDM7B PHD-finger. Briefly: AlphaScreen or HTRF; proximity assay of His-tagged protein and biotinylated H3(1-21)K4me3; displacement by titrated unlabelled peptide. To be noted: both partners purified.
The target in assay [3] is T1, KDM7B PHD-finger. Briefly: NMR titration; 1H-15N HSQC and 1H-NMR of isotopically labelled KDM7B PHD-finger, apo or with peptide. The conditions noted are these: both partners purified.
Assay [4] concerns the target T1, KDM7B PHD-finger. The experiment in a line: BLI + AlphaScreen or HTRF; SAR of OC9 variants on KDM7B PHD-finger by affinity (BLI) and displacement (AS) assays; the sentence does not tell which gave the result. The conditions noted are these: both partners purified.
Assay [5] concerns the target T2, KDM7B (PHF8, JHDM1F) dual domain (PHD-JmjC) (UniProt Q9UPP1-2 1-447).
T2 construct: KDM7B (PHF8, JHDM1F), PHD-finger in tandem with the JmjC demethylase domain; methods are not in the main text; also called KDM7B dual domain
Briefly: BLI; association and dissociation of the cyclic peptide (2-fold serial dilution) on the protein; curve fittings with a 1:1 binding model. The conditions noted are these: both partners purified.

For assay [6], the target named is T2, KDM7B (PHF8, JHDM1F) dual domain …. Briefly: cell-based or functional assay.
The target is the same in assay [7]. Briefly: ITC; binding curves fitted with a 1:1 binding model. The conditions noted are these: both partners purified.
The target of assay [8] is T1, KDM7B PHD-finger. Described as above. The conditions noted are these: both partners purified.

Bridge positions count the residues as written; N and C are the ends. Square brackets hold non-standard residues; d marks the D form. Ends that are not written are not given here. Lys(Me3) = C[N+](C)(C)CCCC[C@H](N)C(=O)O Where only a bound is given, the exact number is not on record here.

T1 sequence (Q9UPP1 37-483): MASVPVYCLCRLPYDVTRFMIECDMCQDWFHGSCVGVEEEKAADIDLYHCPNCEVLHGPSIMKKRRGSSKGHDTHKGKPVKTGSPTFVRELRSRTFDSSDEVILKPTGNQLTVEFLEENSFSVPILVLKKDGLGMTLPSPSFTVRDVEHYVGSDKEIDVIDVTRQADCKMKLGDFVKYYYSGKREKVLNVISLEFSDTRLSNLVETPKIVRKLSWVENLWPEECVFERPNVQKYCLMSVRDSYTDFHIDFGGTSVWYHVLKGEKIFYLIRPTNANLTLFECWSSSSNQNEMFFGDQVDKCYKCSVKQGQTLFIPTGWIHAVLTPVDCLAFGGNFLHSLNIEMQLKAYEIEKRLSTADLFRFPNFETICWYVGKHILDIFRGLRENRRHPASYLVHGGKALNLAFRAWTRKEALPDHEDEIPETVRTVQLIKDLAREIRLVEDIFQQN
T2 sequence (Q9UPP1 37-483): as above

B1: OC9 V10Kme3 (peptide)
chain: YYLTHPYPS[Lys(Me3)]FRTC
modifications: ends and bridges not checked
B1 gave a Kd in assay [1] of 533 nM. This molecule registered an IC50 in assay [2] of 316 nM.

B2: OC9 V10DV (peptide)
chain: YYLTHPYPS[dV]FRTC
modifications: ends and bridges not checked
For the molecule B2, the Kd in assay [1] was > 10000 nM; in assay [3], 503000 ± 1000 nM.

B3: OC9 with trans-4-fluoroproline at P6 (peptide)
chain: YYLTH[trans‑4‑fluoroproline]YPSVFRTC
modifications: ends and bridges not checked
B3: the “fold higher affinity against the cis-fluoro variant at P6” value in assay [4] was > 10 fold.

B4: OC9, de novo cyclic peptide from mRNA display (peptide)
chain: {CH2CO}-YYLTHPYPSVFRTC
modifications: thioether N-14
As to B4, the Kd in assay [5] is 6 nM; in assay [1], 4 nM; in assay [7], 11 nM; in assay [8], 12 nM. The “dissociative half-life t1/2” value is 2.8 min in assay [5] and 8.1 min in assay [1]. In assay [6], the “IC50 of inhibition of KDM7B demethylation of H3(1–21)K4me3K9me2, MALDI-TOF MS based assay” value was found to be 1190 nM. The “IC50 of inhibition of KDM7B demethylation of H3(1–21)K9me2, MALDI-TOF MS based assay” value in assay [6] is 510 nM. For the same molecule, in assay [2], the IC50 was 32 nM.
